Ends that are not written are not given here.
Assays:
abciximab (ReoPro) [1] = experiment: ELISA, therapeutic coated on Nunc Immobilizer plate, concentration series of tPA, one-site binding fit
Description: (§1) Plates were washed twice with Tris buffered saline pH 7.2 containing 0.1% Tween20 (TBST) and blocked with PBS containing 1% Tween20 for 1 hour at room temperature. […] Plates were washed five times with TBST and incubated with peroxidase labeled anti-mouse immunoglobulins (RAMPO; DAKOCytomation, Glostrup, Denmark) diluted 1:3000 in PBST for 30 minutes at room temperature. Plates were washed five times with PBS 0.1% Tween20, and stained with 100 μL/well of tetramethyl-benzidine (TMB) substrate (Biosource Europe, Nivelles, Belgium). The reaction was terminated with 50 μL/well of 2 M H₂SO₄ and substrate conversion was read at 450 nm on a Spectramax340 microplate reader. Curves were fitted with a one-site binding model (GraphPad Prism version 4.02 for Windows, Graphpad Software, Calif., USA) from which Kd and Bmax were determined.

[2] = target: T1, recombinant human Zn2+-chelated insulin (Monotard) (human, UniProt P01308 90-110; P01308 25-54); experiment: as above
T1 construct: also called zinc-insulin; zinc-chelated insulin
Description: as §1

[3] = target: T2, rapid acting human insulin analogue (NovoRapid Flexpen) (human, UniProt P01308 90-110; P01308 25-54); experiment: as above
T2 construct: also called Insulin Aspart
Description: as §1

[4] = target: T3, human coagulation factor VIII (FVIII) (Aafact) (human, UniProt P00451 20-2351); experiment: as above
T3 chain 1: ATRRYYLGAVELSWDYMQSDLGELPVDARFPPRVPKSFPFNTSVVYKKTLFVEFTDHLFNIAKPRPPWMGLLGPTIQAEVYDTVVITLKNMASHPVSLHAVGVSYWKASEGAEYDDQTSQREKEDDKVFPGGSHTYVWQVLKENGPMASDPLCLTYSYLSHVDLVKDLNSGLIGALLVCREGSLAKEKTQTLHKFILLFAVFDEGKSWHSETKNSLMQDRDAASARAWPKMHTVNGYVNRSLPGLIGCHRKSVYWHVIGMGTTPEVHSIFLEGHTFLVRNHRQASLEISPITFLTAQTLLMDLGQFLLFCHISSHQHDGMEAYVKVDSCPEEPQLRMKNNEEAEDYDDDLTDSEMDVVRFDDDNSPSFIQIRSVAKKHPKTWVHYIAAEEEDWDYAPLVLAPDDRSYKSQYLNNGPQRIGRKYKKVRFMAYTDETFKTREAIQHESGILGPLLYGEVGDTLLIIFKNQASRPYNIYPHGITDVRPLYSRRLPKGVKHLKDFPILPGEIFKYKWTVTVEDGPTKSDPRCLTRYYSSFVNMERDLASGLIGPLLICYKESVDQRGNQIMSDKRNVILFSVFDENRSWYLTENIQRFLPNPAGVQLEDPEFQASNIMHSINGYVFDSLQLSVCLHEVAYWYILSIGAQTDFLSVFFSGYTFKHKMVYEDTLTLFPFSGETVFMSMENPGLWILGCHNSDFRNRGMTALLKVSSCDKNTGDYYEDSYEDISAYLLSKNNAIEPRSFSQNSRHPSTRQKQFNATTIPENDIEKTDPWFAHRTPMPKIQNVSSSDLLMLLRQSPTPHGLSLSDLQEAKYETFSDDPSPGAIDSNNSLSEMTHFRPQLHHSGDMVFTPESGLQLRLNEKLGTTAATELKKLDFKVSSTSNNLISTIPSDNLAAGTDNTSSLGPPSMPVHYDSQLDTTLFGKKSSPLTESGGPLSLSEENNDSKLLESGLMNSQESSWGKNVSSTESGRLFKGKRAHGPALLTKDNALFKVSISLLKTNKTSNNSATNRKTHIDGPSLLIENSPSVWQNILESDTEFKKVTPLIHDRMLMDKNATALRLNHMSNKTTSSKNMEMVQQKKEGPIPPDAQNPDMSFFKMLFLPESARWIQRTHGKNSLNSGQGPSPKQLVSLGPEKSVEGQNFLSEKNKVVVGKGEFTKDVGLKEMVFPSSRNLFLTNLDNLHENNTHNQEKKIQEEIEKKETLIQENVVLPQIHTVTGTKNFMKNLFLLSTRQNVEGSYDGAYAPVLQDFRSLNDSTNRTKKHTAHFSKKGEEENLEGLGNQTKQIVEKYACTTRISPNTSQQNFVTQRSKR
T3 chain 2: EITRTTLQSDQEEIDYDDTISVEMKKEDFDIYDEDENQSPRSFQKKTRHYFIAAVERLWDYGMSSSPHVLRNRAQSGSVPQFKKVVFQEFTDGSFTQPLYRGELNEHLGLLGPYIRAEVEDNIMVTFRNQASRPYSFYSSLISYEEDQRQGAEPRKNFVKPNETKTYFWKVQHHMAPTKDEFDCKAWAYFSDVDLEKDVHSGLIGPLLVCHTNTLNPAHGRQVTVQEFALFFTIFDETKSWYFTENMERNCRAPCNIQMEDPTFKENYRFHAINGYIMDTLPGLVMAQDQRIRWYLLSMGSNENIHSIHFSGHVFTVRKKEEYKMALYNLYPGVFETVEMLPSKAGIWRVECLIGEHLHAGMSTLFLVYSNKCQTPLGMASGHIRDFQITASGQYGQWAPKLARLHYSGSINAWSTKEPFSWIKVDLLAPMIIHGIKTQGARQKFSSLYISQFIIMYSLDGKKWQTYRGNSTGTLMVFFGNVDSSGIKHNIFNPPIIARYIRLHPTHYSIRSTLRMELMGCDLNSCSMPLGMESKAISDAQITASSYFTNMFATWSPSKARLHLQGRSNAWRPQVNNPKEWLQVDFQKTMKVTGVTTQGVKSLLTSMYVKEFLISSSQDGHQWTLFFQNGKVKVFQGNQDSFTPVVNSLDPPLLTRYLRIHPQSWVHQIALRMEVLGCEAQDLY
Description: as §1

[5] = target: T4, human albumin (Cealb, Sanquin-CLB) (human, UniProt P02768 25-609); experiment: as above
T4 construct: also called CeaIb
Description: as §1

abciximab (ReoPro) [6] = experiment: cell-based or functional assay
[7] = target: T1, recombinant human Zn2+-chelated insulin …; experiment: cell-based or functional assay
[8] = target: Infliximab (Remicade), human-murine chimeric monoclonal antibody; experiment: cell-based or functional assay
[9] = target: T2, rapid acting human insulin analogue …; experiment: cell-based or functional assay
[10] = target: Etanercept (Enbrel), native; experiment: cell-based or functional assay
[11] = target: T5, recombinant human β2-glycoprotein I (insect cells) (human, UniProt P02749 20-345); experiment: SPR (Biacore), HGFA F immobilized on CM5 chip
T5 construct: also called recombinant β2GPI; rβ2GPI
T5 sequence (looked up): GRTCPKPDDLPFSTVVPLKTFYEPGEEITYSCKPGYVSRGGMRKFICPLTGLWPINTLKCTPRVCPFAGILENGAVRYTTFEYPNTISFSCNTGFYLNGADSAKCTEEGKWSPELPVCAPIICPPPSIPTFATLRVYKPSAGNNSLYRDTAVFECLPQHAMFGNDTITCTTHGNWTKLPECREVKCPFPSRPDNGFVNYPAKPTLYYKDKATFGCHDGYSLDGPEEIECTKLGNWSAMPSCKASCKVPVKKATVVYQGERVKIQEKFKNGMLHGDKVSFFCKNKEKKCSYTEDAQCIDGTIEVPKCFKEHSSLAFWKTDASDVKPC
Description: (§2) A standardized amine coupling procedure was used to couple proteins with F domains to a CM5 chip (Biacore AB, Uppsala, Sweden). First, the dextran surface of the chips was activated by a 35 μl injection with a 1:1 mixture of 0.1 M N-hydroxysuccinimide (NHS) and 0.4 M N-ethyl-N′-(dimethylaminopropyl)carbodiimide (EDC) at a flow rate of 5 μl min.⁻¹. Then, the proteins were covalently coupled to the activated dextran surface. Remaining activated groups in each of the four flow channels were blocked by injection of 35 μl of 1 M ethanolamine hydrochloride pH 8.5. EDC, NHS and ethanolamine hydrochloride were obtained from Biacore. […] The flow rate was 10 μl min.⁻¹, the injection time was 120″. The running buffer during immobilization was 10 mM HEPES pH 7.4, 140 mM NaCl. Buffers were filtrated on a 0.22 μm filter (white GSWP, 47 mm, Millipore) and degassed at room temperature. For subsequent binding experiments, the running buffer was 10 mM HEPES pH 7.4, 140 mM NaCl, 1.5 mM CaCl₂, 10 mM εACA, 0.005% Tween-20. […] After each injection of protein, the chip was regenerated with 0.1 M H₃PO₄ pH 1.0.

[12] = target: T5, recombinant human β2-glycoprotein I …; experiment: SPR (Biacore), tPA F immobilized on CM5 chip
Description: as §2

abciximab (ReoPro), sequence (VH, as listed by the source, chain 1 of 2): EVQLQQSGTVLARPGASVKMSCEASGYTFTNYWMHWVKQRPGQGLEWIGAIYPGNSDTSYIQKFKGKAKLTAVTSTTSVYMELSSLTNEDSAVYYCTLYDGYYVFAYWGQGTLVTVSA
abciximab (ReoPro), sequence (VL, as listed by the source, chain 2 of 2): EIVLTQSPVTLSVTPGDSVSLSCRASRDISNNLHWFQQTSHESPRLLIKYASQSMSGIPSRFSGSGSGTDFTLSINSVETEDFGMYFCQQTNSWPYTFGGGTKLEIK
T1 sequence (P01308 90-110 limits assumed, chain 1 of 2): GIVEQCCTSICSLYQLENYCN
T1 sequence (P01308 25-54 limits assumed, chain 2 of 2): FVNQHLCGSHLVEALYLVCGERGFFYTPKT
T2 sequence (P01308 other isoform, or with tags, fused parts or gaps limits assumed, chain 2 of 2): as the sequence (P01308 25-54 limits assumed, chain 2 of 2) above, with P28D counted along it

B1: tissue-type plasminogen activator (tPA) (enzyme, human, UniProt P00750 36-562, looked up)
chain: SYQVICRDEKTQMIYQQHQSWLRPVLRSNRVEYCWCNSGRAQCHSVPVKSCSEPRCFNGGTCQQALYFSDFVCQCPEGFAGKCCEIDTRATCYEDQGISYRGTWSTAESGAECTNWNSSALAQKPYSGRRPDAIRLGLGNHNYCRNPDRDSKPWCYVFKAGKYSSEFCSTPACSEGNSDCYFGNGSAYRGTHSLTESGASCLPWNSMILIGKVYTAQNPSAQALGLGKHNYCRNPDGDAKPWCHVLKNRRLTWEYCDVPSCSTCGLRQYSQPQFRIKGGLFADIASHPWQAAIFAKHRRSPGERFLCGGILISSCWILSAAHCFQERFPPHHLTVILGRTYRVVPGEEEQKFEVEKYIVHKEFDDDTYDNDIALLQLKSDSSRCAQESSVVRTVCLPPADLQLPDWTECELSGYGKHEALSPFYSERLKEAHVRLYPSSRCTSQHLLNRTVTDNMLCAGDTRSGGPQANLHDACQGDSGGPLVCLNDGRMTLVGIISWGLGCGQKDVPGVYTKVTNYLDWIRDNMRP
notes: Full-length commercial tPA; also called Actilyse; Alteplase
Abciximab (ReoPro) [1]
  Bmax: 0.533 OD450 nm
[2]
  Bmax: 0.756 OD450 nm
[3]
  Bmax: 3.62 OD450 nm
[4]
  Bmax: 0.54 OD450 nm
[5]
  Bmax: 1.23 OD450 nm
Abciximab (ReoPro) [6]
  tPA activation, Max. Activation (%) (tPA-dependent plasminogen activation, % of standardized positive control): 0%
[7]
  tPA activation, Max. Activation (%) (tPA-dependent plasminogen activation, % of standardized positive control): 17.4%
[8]
  tPA activation, Max. Activation (%) (tPA-dependent plasminogen activation, % of standardized positive control): 0%
[9]
  tPA activation, Max. Activation (%) (tPA-dependent plasminogen activation, % of standardized positive control): 70.9%
[10]
  tPA activation, Max. Activation (%) (tPA-dependent plasminogen activation, % of standardized positive control): 0%

B2: chemically synthesized HGFA F domain (other)
chain: EKCFDETRYEYLEGGDRWARVRQGHVEQCECFGGRTWCEGTK
modifications: carboxy-terminal acetylated lysine residue
notes: domain: F domain; Immobilized on the second Biacore chip
[11]
  binding result: no binding (tested: 0-300 nM)

B3: chemically synthesized tPA F domain (other, human)
chain: SYQVICRDEKTQMIYQQHQSWLRPVLRSNRVEYCWCNSGRAQCHSVPVKSK
modifications: ends and bridges not checked; also: C-terminal Lys acetylated or biotinylated, not given here which
notes: domain: F domain; Made by native chemical ligation; immobilized on the second Biacore chip
[12]
  binding result: no binding (tested: 0-300 nM)

Reference: patent US20080220446A1 (published 2008)
